Residue numbers refer to the chain shown, from its start. Like-named read-outs stand apart in the source and are kept apart here. Where no end group is shown, it is not given here. The star is where a group is joined. Biotin = O=C1N[C@H]2[C@H](CS[C@H]2CCCCC(=O)*)N1
Columns and labels:
[1] = biological target: T1, biotinylated NANP-peptide (Plasmodium falciparum); assay: ELISA, biotinylated peptide on avidin-coated plates, titrated IgG
T1 construct: also called NANP-repeat region of CSP
T1 peptide: Biotin-NANPNANPNANPNANPNA
Method: (§1) To test specific antibody binding to (i) the NANP-repeat region of CSP and (ii) the N-terminal region of CSP covering the junction between the N-terminal domain and the NANP-repeats, ELISA plates were coated with 10 μg/ml of avidin (Sigma). […] The plates were washed and incubated with titrated monoclonal antibodies, followed by 1/500 AP-conjugated goat anti-human IgG (Southern Biotech) and pNPP substrate. EC50 (ng/ml) values were calculated for every sample tested by nonlinear regression analysis using the Graph Pad Prism 7 software.

[2] = biological target: T2, biotinylated NPDP-peptide (Plasmodium falciparum, also: biotinylated); assay: as above
T2 peptide: KQPADGNPDPNANPN
Method: as §1

[3] = biological target: T3, biotinylated NPDP19-peptide (Plasmodium falciparum); assay: ELISA, biotinylated peptide on streptavidin-coated plates
T3 peptide: Biotin-KQPADGNPDPNANPNVDPN

[4] = biological target: T1, biotinylated NANP-peptide; assay: as above
[5] = biological target: T1, biotinylated NANP-peptide; assay: ELISA, biotinylated peptide on avidin-coated plates, titrated IgG
Method: as §1

[6] = biological target: T2, biotinylated NPDP-peptide; assay: as above
Method: as §1

B1: MGU10 (antibody, V domains shown)
VH: QVQLVESGGGVVQPGRSLRLSCAASGFAFSNYGMNWVRQAPGKGLEWVAVIWHDGSLKYYTQSVKGRFTISRDNAKNTLFLQMDSLSADDTAMYYCTVWYLETPDDGFDIWGRGTMVTVSS
VL: QLVLTQPPSASASLGVSVTLTCTLSHGHTSKAIAWHQQQPGKGPRYLMKVNSDGSHTKGAAVPDRFSGSTSGAERHFTISNLQSDDEADYYCQAWDSGIWVFGGGTKLTVL
notes: also called parental antibody MGU10
EC50 [1]: 0.0343 µg/mL | EC50 [2]: 0.0261 µg/mL

B2: MGU10variant1 (antibody, V domains shown)
VH: B1 VH with N35H, R113Q
VL: B1 VL
notes: Expressed as IgG1 in Expi293F cells and tested as quantified culture supernatant; also called MGU10v1
EC50 [1]: 0.0285 µg/mL | EC50 [2]: 0.0225 µg/mL

B3: MGU10variant2 (antibody, V domains shown)
VH: B1 VH with D106E
VL: B1 VL
notes: Expressed as IgG1; also called MGU10v2
binding result [3]: binds | EC50 [1]: 0.0268 µg/mL | EC50 [2]: 0.0204 µg/mL

B4: MGU10variant8 (antibody, V domains shown)
VH: B1 VH with D89E, D106E
VL: B1 VL
notes: also called MGU10v8
binding result [3]: binds | binding result [4]: binds

B5: MGU10variant3 (antibody, V domains shown)
VH: B1 VH
VL: B1 VL with D96E
notes: Expressed as IgG1; also called MGU10v3
EC50 [1]: 0.0263 µg/mL | EC50 [2]: 0.0251 µg/mL

B6: MGH2 (antibody, V domains shown)
VH: QVQLVESGGGVVQPGGSLRLSCTASGFSFSSYAMHWVRQAPGKGLEWVAYTRYDGSNKFYLDSVQGRFTISRDNSKNTLYLEMDSLRLEDTAVYFCAKVGDGTVAGTIDYWGQGTLVTVSS
VL: YIVMTQSPLSLPVTLGQPASISCRSSQSLVYSDGNTYLNWYQQRPGQSPRRLIYKVSNRDSGVPDRFSGSGSGTDFTLKISRVEAEDVGVYYCMQGTHWWTFGQGTKVEIK
notes: also called parental antibody MGH2
EC50 [5]: 0.0279 µg/mL | EC50 [6]: 0.0488 µg/mL

B7: MGH2variant1 (antibody, V domains shown)
VH: B6 VH
VL: B6 VL with W99F
notes: Expressed as IgG1; also called MGH2v1
EC50 [5]: 0.0223 µg/mL | EC50 [6]: 0.0658 µg/mL
